In US20220144945A1 (Biogen, published 2022):
Blank lines part the entries; values can stand above or below the binder they belong to.

Biological target: T1, LINGO-1 ectodomain (human, UniProt Q96FE5 42-561)
T1 construct: also called Sp35
T1 sequence: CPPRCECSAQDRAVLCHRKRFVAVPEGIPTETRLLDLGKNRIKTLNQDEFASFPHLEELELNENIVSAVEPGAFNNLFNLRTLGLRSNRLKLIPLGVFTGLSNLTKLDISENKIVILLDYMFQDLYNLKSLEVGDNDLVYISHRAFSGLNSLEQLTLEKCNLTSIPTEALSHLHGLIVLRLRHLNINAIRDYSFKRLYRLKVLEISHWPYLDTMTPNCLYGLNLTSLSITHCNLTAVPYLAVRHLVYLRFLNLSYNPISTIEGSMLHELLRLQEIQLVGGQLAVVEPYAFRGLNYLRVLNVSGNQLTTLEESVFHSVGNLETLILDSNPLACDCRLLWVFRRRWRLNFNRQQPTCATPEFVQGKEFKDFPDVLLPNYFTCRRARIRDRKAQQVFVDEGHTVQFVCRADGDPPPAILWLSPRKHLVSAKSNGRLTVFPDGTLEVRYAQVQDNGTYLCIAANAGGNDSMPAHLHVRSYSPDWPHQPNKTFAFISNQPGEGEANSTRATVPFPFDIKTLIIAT
Assay: method not stated

Kd: ≤ 0.02 nM
B1: Li81 (antibody, human IgG1, kappa, V domains shown)
VH: EVQLLESGGGLVQPGGSLRLSCAASGFTFSAYEMKWVRQAPGKGLEWVSVIGPSGGFTFYADSVKGRFTISRDNSKNTLYLQMNSLRAEDTAVYYCATEGDNDAFDIWGQGTTVTVSS
VL: DIQMTQSPATLSLSPGERATLSCRASQSVSSYLAWYQQKPGQAPRLLIYDASNRATGIPARFSGSGSGTDFTLTISSLEPEDFAVYYCQQRSNWPMYTFGQGTKLEIKR
notes: also called anti-LINGO-1 antibody; anti-Lingo-1

Kd: ≤ 0.05 nM
B2: Fab of Li81 (Fab, V domains shown)
VH: B1 VH
VL: DIQMTQSPATLSLSPGERATLSCRASQSVSSYLAWYQQKPGQAPRLLIYDASNRATGIPARFSGSGSGTDFTLTISSLEPEDFAVYYCQQRSNWPMYTFGQGTKLEIK
notes: also called Li81 Fab
